The results in this text go back to US20220017622A1 (Pfizer, published 2022).

Broadly, the Kd is the free concentration of one partner at which half of the binding sites on the other are occupied at equilibrium, for simple one-to-one binding. A lower Kd goes with higher affinity. Usually koff stands for the first-order rate constant of dissociation. Lower therefore signals slow dissociation. Usually kon stands for the rate constant with which the complex forms. High values mean fast association, low ones slow association.

Test [1] deals with T1, human B7-H4 extracellular domain (human, UniProt Q7Z7D3 29-258).
T1 construct: Soluble ECD used as SPR analyte; also called huB7-H4 ECD; huB7-H4
T1 sequence: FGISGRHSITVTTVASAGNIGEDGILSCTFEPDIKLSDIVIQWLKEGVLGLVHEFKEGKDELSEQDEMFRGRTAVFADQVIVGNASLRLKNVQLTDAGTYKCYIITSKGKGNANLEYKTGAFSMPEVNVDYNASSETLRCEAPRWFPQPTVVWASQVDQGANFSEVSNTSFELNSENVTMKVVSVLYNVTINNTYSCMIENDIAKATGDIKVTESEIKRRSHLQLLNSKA
Put plainly: SPR 37 C; bispecific (IgG1 scaffold) on anti-hFc chip, ECD analyte.

Test [2] deals with T2, human CD3 (delta/epsilon heterodimer) (human, UniProt P07766 23-126; P04234 22-105).
T2 construct: captured on an anti-His chip, so it carries a His tag; also called huCD3
Put plainly: SPR 37 C; CD3 delta/epsilon on anti-His chip, bispecific (IgG1 scaffold) analyte.

For test [3], the target named is T3, human B7-H4 on cells (human, UniProt Q7Z7D3 25-282).
T3 sequence (looked up): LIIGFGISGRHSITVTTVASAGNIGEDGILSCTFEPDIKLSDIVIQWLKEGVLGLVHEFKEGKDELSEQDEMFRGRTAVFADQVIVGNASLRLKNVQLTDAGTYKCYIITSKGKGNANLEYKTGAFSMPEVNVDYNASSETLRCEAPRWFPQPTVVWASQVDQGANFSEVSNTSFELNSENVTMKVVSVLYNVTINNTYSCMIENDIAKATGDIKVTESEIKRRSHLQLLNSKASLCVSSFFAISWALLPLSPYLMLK
Put plainly: cell-based or functional assay.

T2 sequence (P07766 23-126, stated change not applied, chain 1 of 2): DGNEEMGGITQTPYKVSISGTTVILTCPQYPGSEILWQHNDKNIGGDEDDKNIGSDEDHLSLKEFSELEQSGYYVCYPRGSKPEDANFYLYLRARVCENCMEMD
T2 sequence (P04234 22-105, stated change not applied, chain 2 of 2): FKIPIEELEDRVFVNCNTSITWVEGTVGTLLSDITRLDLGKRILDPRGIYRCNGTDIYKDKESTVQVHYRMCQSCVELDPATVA

B1: B7-H4xCD3 bispecific antibody 0089 (bispecific antibody, IgG1)
heavy 1: QVQLQQWGAGLLKPSETLSLTCAVYGGSFSGYYWNWIRQPPGKGLEWIGEINHSGSTKYNPSLKSRVTISGDTSKNQFSLKLNSVTAADTAVYYCVRGLYNWNVDSWGQGTLVTVSSASTKGPSVFPLAPSSKSTSGGTAALGCLVKDYFPEPVTVSWNSGALTSGVHTFPAVLQSSGLYSLSSVVTVPSSSLGTQTYICNVNHKPSNTKVDKKVEPKSCEKTHTCPECPAPEAAGAPSVFLFPPKPKDTLMISRTPEVTCVVVDVSHEDPEVKFNWYVDGVEVHNAKTKPREEQYNSTYRVVSVLTVLHQDWLNGKEYKCKVSNKALPAPIEKTISKAKGQPREPQVYTLPPSREEMTKNQVSLTCEVKGFYPSDIAVEWESNGQPENNYKTTPPVLDSDGSFFLYSKLTVDKSRWQQGNVFSCSVMHEALHNHYTQKSLSLSPG
light 1: DIQMTQSPSSLSASVGDRVTITCRASQGIRNDLGWYQQKPGKAPKRLIYVASSLQSGVPSRFSGSGSGTEFTLTISSLQPEDFATYYCLQHNSYPYTFGQGTKLEIKRTVAAPSVFIFPPSDEQLKSGTASVVCLLNNFYPREAKVQWKVDNALQSGNSQESVTEQDSKDSTYSLSSTLTLSKADYEKHKVYACEVTHQGLSSPVTKSFNRGEC
heavy 2: EVQLVESGGGLVQPGGSLRLSCAASGFTFSDYYMTWVRQAPGKGLEWVAFIRNQARGYTSDHNPSVKGRFTISRDNAKNSLYLQMNSLRAEDTAVYYCARDRPSYYVLDYWGQGTTVTVSSASTKGPSVFPLAPSSKSTSGGTAALGCLVKDYFPEPVTVSWNSGALTSGVHTFPAVLQSSGLYSLSSVVTVPSSSLGTQTYICNVNHKPSNTKVDKKVEPKSCRKTHTCPRCPAPEAAGAPSVFLFPPKPKDTLMISRTPEVTCVVVDVSHEDPEVKFNWYVDGVEVHNAKTKPREEQYNSTYRVVSVLTVLHQDWLNGKEYKCKVSNKALPAPIEKTISKAKGQPREPQVYTLPPSREEMTKNQVSLTCLVKGFYPSDIAVEWESNGQPENNYKTTPPVLDSDGSFFLYSRLTVDKSRWQQGNVFSCSVMHEALHNHYTQKSLSLSPG
light 2: DIQMTQSPSSLSASVGDRVTITCTSSQSLFNVRSQKNYLAWYQQKPGKAPKLLIYWASTRESGVPSRFSGSGSGTDFTLTISSLQPEDFATYYCKQSYDLFTFGGGTKVEIKRTVAAPSVFIFPPSDEQLKSGTASVVCLLNNFYPREAKVQWKVDNALQSGNSQESVTEQDSKDSTYSLSSTLTLSKADYEKHKVYACEVTHQGLSSPVTKSFNRGEC
notes: Chains 1-2: B7-H4 arm; chains 3-4: CD3 arm; IgG1 EEE/RRR scaffold
In test [1], B1 registered a Kd of 22.3 nM, a koff of 0.00588 s⁻¹ and a kon of 264000 M⁻¹ s⁻¹. In test [2], this molecule returned a Kd of 40 nM, a koff of 0.026 s⁻¹ and a kon of 653000 M⁻¹ s⁻¹. Besides, in test [3], the “T cell mediated tumor cell killing EC50, HCC1954-Luc” value was 75 nM and the “T cell mediated tumor cell killing, MDA-MB-468” value stood at 45.
